This is an account of results in PMC6238587, “Molecular analysis of human Ero1 reveals novel regulatory mechanisms for oxidative protein folding” (Life Science Alliance, 2018).

Substitutions are numbered along the chain they refer to. Numbers in names are those of the source.

T1: human Ero1α C104A/C131A, N-terminal His tag (human, UniProt Q96HE7 24-468, C104A | C131A)
T1 construct: human Ero1α, mature, residues E24-H468; also called CCAA (h.a.); source: E. coli BL21(DE3)ΔtrxAΔtrxC with CyDisCo (Erv1p, PDI) co-expressed; in lysate, and purified
T1 sequence (looked up): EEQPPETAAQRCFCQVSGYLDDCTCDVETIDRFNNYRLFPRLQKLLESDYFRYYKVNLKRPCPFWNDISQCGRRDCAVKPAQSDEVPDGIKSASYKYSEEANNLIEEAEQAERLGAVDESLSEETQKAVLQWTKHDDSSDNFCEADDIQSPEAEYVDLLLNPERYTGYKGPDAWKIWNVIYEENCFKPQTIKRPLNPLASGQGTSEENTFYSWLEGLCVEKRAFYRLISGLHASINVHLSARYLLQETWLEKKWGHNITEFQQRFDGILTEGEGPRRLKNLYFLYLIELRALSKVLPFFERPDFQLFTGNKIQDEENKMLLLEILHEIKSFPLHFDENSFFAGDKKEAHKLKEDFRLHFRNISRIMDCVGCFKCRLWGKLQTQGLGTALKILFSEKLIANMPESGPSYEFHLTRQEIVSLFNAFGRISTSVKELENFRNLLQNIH

T2: human Ero1β C100/130A, N-terminal His tag (human, UniProt Q86YB8 34-467, D129V | H465Q | C100/130A | C100/130A)
T2 construct: human Ero1β, mature, residues Q34-R467, natural D129V and H465Q variant; also called CCAA (h.a.); source: E. coli BL21(DE3)ΔtrxAΔtrxC with CyDisCo (Erv1p, PDI) co-expressed; in lysate, and purified
T2 sequence (looked up): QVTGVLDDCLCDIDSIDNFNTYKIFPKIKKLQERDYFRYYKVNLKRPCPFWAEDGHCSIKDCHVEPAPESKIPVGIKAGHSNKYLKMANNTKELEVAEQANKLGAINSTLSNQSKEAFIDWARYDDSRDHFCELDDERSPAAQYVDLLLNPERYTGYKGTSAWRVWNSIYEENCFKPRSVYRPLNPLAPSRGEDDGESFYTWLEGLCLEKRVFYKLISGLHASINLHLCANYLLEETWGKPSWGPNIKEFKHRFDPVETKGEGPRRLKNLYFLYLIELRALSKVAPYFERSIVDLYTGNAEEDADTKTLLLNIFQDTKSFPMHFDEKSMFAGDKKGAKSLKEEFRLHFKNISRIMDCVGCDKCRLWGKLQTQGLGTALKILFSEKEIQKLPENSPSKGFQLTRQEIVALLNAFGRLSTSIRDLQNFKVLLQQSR

B1: human Ero1α, wild type, N-terminal His tag (E24-H468) (enzyme, UniProt Q96HE7 24-468, looked up)
chain: T1 sequence (looked up) with A81C, A108C
modifications: (phospho)gluconoylation of the N-terminal His tag, gluconoylated species the major state
notes: human Ero1α, mature, residues E24-H468; With co-expressed PDI it purifies as a heterodimer; also called endoplasmic reticulum oxidoreductin 1 alpha; CCCC; source: E. coli BL21(DE3)ΔtrxAΔtrxC with CyDisCo components co-expressed; in lysate, and purified (cobalt IMAC, anion exchange, size exclusion)
B2: human PDI with three consecutive FLAG tag sequences inserted before the ER retention signal, non-His-tagged (enzyme)
chain: not shown
notes: human PDI, mature, codon-optimized; residues after the TEV site probably stay on the protein; also called PDI3FLAG; source: E. coli, purified (cobalt IMAC, TEV protease cleavage, anion exchange); not shown: 3xFLAG, internal (after residue 503), kept; His6, N-terminal, cleaved
B3: human PDIp, non-tagged (enzyme, UniProt Q13087 22-525, looked up)
chain: QEQGARSPSEEPPEEEIPKEDGILVLSRHTLGLALREHPALLVEFYAPWCGHCQALAPEYSKAAAVLAAESMVVTLAKVDGPAQRELAEEFGVTEYPTLKFFRNGNRTHPEEYTGPRDAEGIAEWLRRRVGPSAMRLEDEAAAQALIGGRDLVVIGFFQDLQDEDVATFLALAQDALDMTFGLTDRPRLFQQFGLTKDTVVLFKKFDEGRADFPVDEELGLDLGDLSRFLVTHSMRLVTEFNSQTSAKIFAARILNHLLLFVNQTLAAHRELLAGFGEAAPRFRGQVLFVVVDVAADNEHVLQYFGLKAEAAPTLRLVNLETTKKYAPVDGGPVTAASITAFCHAVLNGQVKPYLLSQEIPPDWDQRPVKTLVGKNFEQVAFDETKNVFVKFYAPWCTHCKEMAPAWEALAEKYQDHEDIIIAELDATANELDAFAVHGFPTLKYFPAGPGRKVIEYKSTRDLETFSKFLDNGGVLPTEEPPEEPAAPFPEPPANSTMGSKEEL
B4: human protein disulfide isomerase (PDI), wild type, co-expressed CyDisCo component (enzyme)
chain: not shown
notes: human PDI, wild-type codon-optimized gene of the CyDisCo plasmid pMJS205; also called wild-type PDI; source: E. coli BL21(DE3)ΔtrxAΔtrxC, co-expressed with Ero1 from pMJS205; in lysate, and co-purified with His-tagged Ero1
B5: human PDI, wild type, non-tagged, purified (enzyme)
chain: not shown
B6: human Ero1β, wild type, N-terminal His tag (Q34-R467, natural D129V and H465Q variant) (enzyme, UniProt Q86YB8 34-467, looked up)
chain: T2 sequence (looked up) with A67C, A97C
modifications: (phospho)gluconoylation of the N-terminal His tag, gluconoylated species the major state
notes: human Ero1β, mature, residues Q34-R467, natural D129V and H465Q variant; With co-expressed PDI it purifies as a heterodimer; also called CCCC; source: E. coli BL21(DE3)ΔtrxAΔtrxC with CyDisCo components co-expressed; in lysate, and purified (cobalt IMAC, anion exchange, size exclusion)

In assay [1] the target is B2. Put plainly: pull-down; PDI exchange assay with the redox state of both components fixed by GSSG before mixing. The note with it: both partners purified.
Assay [2] concerns the target B5. Put plainly: pull-down; PDI exchange assay: 1 μM His-tagged Ero1–PDI heterodimer with non-His-tagged PDI, PDI3FLAG or other PDI family member (1:1 or 10:1), 1 h at RT, 20 mM sodium phosphate pH 7.3, 150 mM NaCl; Ni-NTA spin columns with 10 mM imidazole; reducing SDS–PAGE. The note with it: both partners purified.
Assay [3] deals with B1. Described as above. The note with it: both partners purified.
Assay [4] deals with B6. The description is as above. The conditions noted are these: both partners purified.
The target of assay [5] is His-tagged Ero1β–PDI heterodimer (human, UniProt Q86YB8 34-467; P07237 18-508, D129V | H465Q, (phospho)gluconoylation of the N-terminal His tag, gluconoylated species the major state). Put plainly: cell-based or functional assay.
The target in assay [6] is B1. Put plainly: pull-down; His-tagged Ero1 co-expressed with untagged PDI (CyDisCo) in E. coli; large-scale purification by cobalt IMAC, anion exchange and size-exclusion chromatography; SDS–PAGE. The conditions noted are these: partners not purified. In general terms: In gel filtration, larger molecules generally elute earlier.
Assay [7] has as its target B6. The assay is described as above. The conditions noted are these: partners not purified.
Assay [8] has as its target T1, human Ero1α C104A/C131A, N-terminal His …. The description is as above. The conditions noted are these: partners not purified.
The target in assay [9] is T2, human Ero1β C100/130A, N-terminal His …. Described as above. The conditions noted are these: partners not purified.
The target in assay [10] is His-tagged Ero1α–PDI heterodimer (human, UniProt Q96HE7 24-468; P07237 18-508, (phospho)gluconoylation of the N-terminal His tag, gluconoylated species the major state). Put plainly: cell-based or functional assay.
His-tagged Ero1α–PDI heterodimer, sequence (P07237 18-508, one chain of several): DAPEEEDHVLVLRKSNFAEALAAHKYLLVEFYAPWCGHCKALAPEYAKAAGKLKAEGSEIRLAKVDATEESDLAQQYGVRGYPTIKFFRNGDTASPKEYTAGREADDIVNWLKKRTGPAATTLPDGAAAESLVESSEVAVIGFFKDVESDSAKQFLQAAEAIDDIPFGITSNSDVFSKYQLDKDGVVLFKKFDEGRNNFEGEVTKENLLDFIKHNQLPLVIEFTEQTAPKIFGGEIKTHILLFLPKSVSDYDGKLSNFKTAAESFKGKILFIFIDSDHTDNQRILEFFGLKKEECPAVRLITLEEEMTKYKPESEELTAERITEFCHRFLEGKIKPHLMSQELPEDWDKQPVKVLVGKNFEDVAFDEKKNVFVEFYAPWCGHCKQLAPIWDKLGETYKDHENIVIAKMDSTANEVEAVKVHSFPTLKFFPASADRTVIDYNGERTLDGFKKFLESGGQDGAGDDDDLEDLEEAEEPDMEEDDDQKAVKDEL

His-tagged Ero1β–PDI heterodimer, sequence (P07237 18-508, stated change not applied, one chain of several): as the sequence (P07237 18-508, one chain of several) above

As for B1, the binding result in assay [1] and in assay [2] was “binds” each time.

Regarding B2, in assay [3], the “ratio of co-purified PDI3FLAG to wild-type PDI (PDI3FLAG added 1:1)” value was ~1 PDI3FLAG per wild-type PDI and the “wild-type PDI left in the complex with 10-fold PDI3FLAG, percent of the original” value is around 10%. In [4], the “ratio of co-purified PDI3FLAG to wild-type PDI (PDI3FLAG added 1:1)” value is ~1 PDI3FLAG per wild-type PDI and the “wild-type PDI left in the complex with 10-fold PDI3FLAG, percent of the original” value is around 10%.

B3: the “acceleration of kcat of oxygen consumption by 10 μM external PDIp” value in assay [5] is 3.7 fold.

Take B4: the stoichiometry N (usually a count of units in the complex or per binding partner) is around 1 PDI per Ero1 in assay [6], around 1 PDI per Ero1 in assay [7], 1 PDI per Ero1 in [8] and 1 PDI per Ero1 in assay [9].

Take B5: the figures for the “acceleration of kcat of oxygen consumption by 10 μM external PDI” value in assay [10] and in assay [5] were 7.1 fold and 4.8 fold, respectively.

In the case of B6, the binding result in assay [1] and in [2] was “binds” in each case.
